Measured values reported in patent US20140294866A1 (Amgen, published 2014).
Numbering of substitutions follows the chain as printed.

T1: recombinant mature myostatin (human, produced in E. coli) (human, UniProt O14793 267-375)
T1 sequence (looked up): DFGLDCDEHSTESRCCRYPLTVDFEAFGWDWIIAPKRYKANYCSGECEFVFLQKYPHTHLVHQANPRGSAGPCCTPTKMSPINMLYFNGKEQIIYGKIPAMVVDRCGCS

B1: recombinant human activin receptor IIB/Fc chimera (R&D Systems) (Fc fusion, UniProt Q13705 19-134, looked up, not shown: a dimerising Fc or GST)
chain: SGRGEAETRECIYYNANWELERTNQSGLERCEGEQDKRLHCYASWRNSSGTIELVKKGCWLDDFNCYDRQECVATEENPQVYFCCCEGNFCNERFTHLPEAGGPEVTYEPPPTAPT
B2: 2x mTN8-19-21 peptibody (Fc fusion)
chain: GGGGGAQSEYQGLCTRWPWMCPPQGWKLEGSGSATGGSGSTASSGSGSATGSEYQGLCTRWPWMCPPQGWKLE
notes: Human Fc form
B3: 2x mTN8-19-33 peptibody (Fc fusion)
chain: B2 chain with S8P, Y10S, L13H, K27G, S52P, Y54S, L57H, K71G
B4: 2x mTN8-19-7 peptibody (Fc fusion)
chain: GGGGGAQLADHGQCIRWPWMCPPEGWELEGSGSATGGSGSTASSGSGSATGLADHGQCIRWPWMCPPEGWELE

What was measured:
[1] = target: T1, recombinant mature myostatin (human, …); test: cell-based or functional assay
[2] = target: T1, recombinant mature myostatin (human, …); test: cell-based or functional assay; remark: listed apart in the source
[3] = target: T1, recombinant mature myostatin (human, …); test: KinExA solution based assay or BIAcore assay (not said which)

Row | Binder | Kd [3] [pM] | other results
1 | B1 |  | IC50 (nM), C2C12 pMARE-luc myostatin activity assay [1]: ~83 nM
2 | QGHCTRWPWMCPPY [TN8-19 peptide] |  | IC50 (read off the curve); luciferase activity, C2C12 pMARE-luc reporter cells, 4 nM myostatin [2]: ~20 µM
3 | B2 | 6 | 
4 | B3 | 3 | 
5 | B4 | 12 | 
